Assay results taken from article PMC4935573.
Values joined by “and” are separate entries in the source; they are usually repeats but may differ in a detail not shown here. Identical values can stand only once.

Legend:
[1] = target: regulatory domain of human tryptophan hydroxylase 1, C64S (RDTPH1 C64S) (human) (UniProt P17752); assay: SEC
[2] = target: regulatory domain of human tryptophan hydroxylase 1, C64S (RDTPH1 C64S) (human) (UniProt P17752); assay: AUC
[3] = target: regulatory domain of human tryptophan hydroxylase 1, C64S (RDTPH1 C64S) (human) (UniProt P17752); assay: SEC; remark: listed apart in the source

Q: Which results are given for “regulatory domain of human tryptophan hydroxylase 1, C64S (RDTPH1 C64S) (from UniProt P17752 1-101) (domain or fragment)”?
A: stoichiometry N [1]: 2; stoichiometry N [2]: 2; stoichiometry N [3]: 2 and 4
